Source: the supplement of paper PMC7877785
± gives the uncertainty stated by the source.

Experiment: self-splicing fitness, log relative to wild type (ln ratio); higher = more splicing; Tetrahymena group I intron in knt gene, E. coli kanamycin selection, DiMSum; sequences stand for … in CUCUCU…GGAGGGAAAAGUUAUCAGGCAUGCACCUGGUAGCUAGUCUUUAAACCAAUAGAUUGCAUCGGUUUAAAAGGCAAGACCGUCAAAUUGCGGGAAAGGGGUCAACAGCCGUUCAGUACCAAGUCUCAGGGGAAACUUUGAGAUGGCCUUGCAAAGGGUAUGGUAAUAAGCUGACGGACAUGGUCCUAACCACGCAGCCAAGUCCUAAGUCAACAGAUCUUCUGUUGAUAUGGAUGCAGUUCACAGACUAAAUGUCGGUCGGGGAAGAUGUAUUCUUCUCAUAAGAUAUAGUCGGACCUCUCCUUAAUGGGAGCUAGCGGAUGAAGUGAUGCAACACUGGAGCCGCUGGGAACUAAUUUGUAUGCGAAAGUAUAUUGAUUAGUUUUGGAGUACUCGUGGUCG
Procedure, shortened: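 The eight P1ex-region nucleotides of an intron in the knt kanamycin-resistance gene on pET-22b(+) were all randomised and the library put into E. coli BL21(DE3). Six replicate transformations were grown overnight at 37°C or 30°C on LB agar with or without 25 μg/mL kanamycin, together with 100 μg/mL carbenicillin, 50 μM IPTG and 0.2% rhamnose. Colonies were pooled and amplicon-sequenced on an Illumina HiSeq 2500. Fitness from DiMSum is the error-weighted combination of wild-type-normalised replicate fold changes, kanamycin over none.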

Sequence | self-splicing fitness (ln) (30 °C) | self-splicing fitness (ln) (37 °C)
UUAGAGCAAUAUUACGCCCG | -1.21 ± 0.11 | -0.643 ± 0.19
UUAGAGCAAUAUUACGGAAA | -2.59 ± 0.19 | -1.72 ± 0.23
UUAGAGCAAUAUUACGGGAU | -3.45 ± 0.39 | -2.97 ± 0.4
UUAGAGCAAUAUUACGGUGC | -3.76 ± 0.28 | -2.11 ± 0.36
UUAGAGCAAUAUUACGUAAG | -2.23 ± 0.097 | -1.2 ± 0.1
UUAGAGCAAUAUUACGUCCU | -1.36 ± 0.21 | -1.87 ± 0.31
UUAGAGCAAUAUUACGUUAC | – | -2.17 ± 0.46
UUAGAGCAAUAUUACGUUGG | -1.89 ± 0.1 | -1.59 ± 0.14
UUAGAGCAAUAUUACGUUUA | -2.01 ± 0.13 | -0.913 ± 0.15
UUAGAGCAAUAUUACGUUUG | -2.04 ± 0.11 | -1.05 ± 0.14
UUAUAGCAAUAUUACGAAAU | -3.75 ± 0.34 | -1.34 ± 0.3
UUAUAGCAAUAUUACGAACG | -0.792 ± 0.17 | -0.293 ± 0.21
UUAUAGCAAUAUUACGACGU | -3.45 ± 0.25 | -1.14 ± 0.16
UUAUAGCAAUAUUACGAGGA | -2.68 ± 0.3 | -1.01 ± 0.23
UUAUAGCAAUAUUACGAUCA | -0.672 ± 0.15 | -0.403 ± 0.17
UUAUAGCAAUAUUACGAUGU | -2.57 ± 0.2 | -1.57 ± 0.23
UUAUAGCAAUAUUACGAUUA | -0.871 ± 0.11 | -0.272 ± 0.13
UUAUAGCAAUAUUACGCAUG | -1.67 ± 0.25 | -0.364 ± 0.23
UUAUAGCAAUAUUACGCGAA | -1.97 ± 0.2 | -1.53 ± 0.34
UUAUAGCAAUAUUACGCGCU | -2.25 ± 0.14 | -1.55 ± 0.13
UUAUAGCAAUAUUACGCGGU | -3.14 ± 0.28 | -1.64 ± 0.28
UUAUAGCAAUAUUACGGAGU | -3.38 ± 0.32 | -2.15 ± 0.3
UUAUAGCAAUAUUACGGCGG | -0.333 ± 0.16 | 0.825 ± 0.2
UUAUAGCAAUAUUACGGGAU | -2.78 ± 0.39 | -3.5 ± 0.42
UUAUAGCAAUAUUACGGGCU | -2 ± 0.33 | -1.3 ± 0.22

Sequence | self-splicing fitness (ln) (30 °C) | self-splicing fitness (ln) (37 °C)
UUAUAGCAAUAUUACGUAAU | -3.23 ± 0.31 | -2.11 ± 0.36
UUAUAGCAAUAUUACGUGUC | -4.44 ± 0.36 | -2.71 ± 0.26
UUAUAGCAAUAUUACGUUUG | -2.12 ± 0.15 | -1.14 ± 0.18
UUCAAGCAAUAUUACGAACU | -2.74 ± 0.27 | -1.62 ± 0.25
UUCAAGCAAUAUUACGACAG | -1.5 ± 0.11 | -1.1 ± 0.095
UUCAAGCAAUAUUACGAGAC | -3.86 ± 0.23 | -2.23 ± 0.19
UUCAAGCAAUAUUACGAGAG | -1.5 ± 0.11 | -1.34 ± 0.11
UUCAAGCAAUAUUACGAUCG | -1.26 ± 0.1 | -2.3 ± 0.2
UUCAAGCAAUAUUACGAUUG | -3.63 ± 0.35 | -2.24 ± 0.27
UUCAAGCAAUAUUACGCGAC | -2.61 ± 0.24 | -1.91 ± 0.2
UUCAAGCAAUAUUACGCGCG | -1.39 ± 0.082 | -0.634 ± 0.13
UUCAAGCAAUAUUACGCUAA | -1.35 ± 0.2 | -0.551 ± 0.19
UUCAAGCAAUAUUACGCUCG | -3.13 ± 0.33 | -2.15 ± 0.2
UUCAAGCAAUAUUACGGAGG | -4.04 ± 0.27 | -2.58 ± 0.19
UUCAAGCAAUAUUACGGAUA | -1.18 ± 0.14 | -0.384 ± 0.12
UUCAAGCAAUAUUACGGCAC | -2.66 ± 0.4 | -1.11 ± 0.33
UUCAAGCAAUAUUACGGCCA | -1.31 ± 0.13 | -0.977 ± 0.13
UUCAAGCAAUAUUACGGCGA | 0.0413 ± 0.081 | 0.263 ± 0.11
UUCAAGCAAUAUUACGGCUC | -1.68 ± 0.17 | -0.923 ± 0.23
UUCAAGCAAUAUUACGGGCA | -0.666 ± 0.11 | 0.111 ± 0.1
UUCAAGCAAUAUUACGGGGA | -1.49 ± 0.1 | -0.885 ± 0.1
UUCAAGCAAUAUUACGGUAU | -2.84 ± 0.11 | -1.64 ± 0.11
UUCAAGCAAUAUUACGGUGC | -2.77 ± 0.42 | -0.868 ± 0.3
UUCAAGCAAUAUUACGGUUC | -4.02 ± 0.32 | -2.78 ± 0.48
UUCAAGCAAUAUUACGUAGU | -3.6 ± 0.22 | -1.61 ± 0.2

Sequence | self-splicing fitness (ln) (30 °C) | self-splicing fitness (ln) (37 °C)
UUCAAGCAAUAUUACGUCGU | -2.69 ± 0.15 | -1.44 ± 0.14
UUCAAGCAAUAUUACGUCUG | -3.08 ± 0.24 | -1.46 ± 0.14
UUCAAGCAAUAUUACGUGCU | -4.47 ± 0.42 | -2.86 ± 0.35
UUCAAGCAAUAUUACGUUUG | -3.95 ± 0.34 | -2.31 ± 0.28
UUCCAGCAAUAUUACGACGG | -2.74 ± 0.32 | -1.98 ± 0.29
UUCCAGCAAUAUUACGAGCU | -3.64 ± 0.23 | -2.71 ± 0.27
UUCCAGCAAUAUUACGAGUG | -0.354 ± 0.059 | -0.52 ± 0.069
UUCCAGCAAUAUUACGCAGA | -2.09 ± 0.21 | -1.32 ± 0.16
UUCCAGCAAUAUUACGCCAG | -1.93 ± 0.15 | -0.95 ± 0.15
UUCCAGCAAUAUUACGCUCG | – | -0.977 ± 0.23
UUCCAGCAAUAUUACGCUGA | -3.73 ± 0.24 | -1.91 ± 0.14
UUCCAGCAAUAUUACGGCAA | -0.0711 ± 0.1 | 0.362 ± 0.12
UUCCAGCAAUAUUACGGCUG | -3.09 ± 0.2 | -2.68 ± 0.25
UUCCAGCAAUAUUACGGGAC | – | -1.29 ± 0.39
UUCCAGCAAUAUUACGGGGG | -3.3 ± 0.15 | -1.57 ± 0.14
UUCCAGCAAUAUUACGGUUU | -0.65 ± 0.064 | -0.427 ± 0.063
UUCCAGCAAUAUUACGUAAA | -0.607 ± 0.086 | 0.616 ± 0.12
UUCCAGCAAUAUUACGUAGC | -3.54 ± 0.17 | -1.51 ± 0.2
UUCCAGCAAUAUUACGUCGC | -1.69 ± 0.32 | -1.23 ± 0.45
UUCCAGCAAUAUUACGUUGC | -2.4 ± 0.15 | -2.47 ± 0.33
UUCGAGCAAUAUUACGAAAA | -2.97 ± 0.31 | -1.28 ± 0.18
UUCGAGCAAUAUUACGAAAC | – | -1.41 ± 0.43
UUCGAGCAAUAUUACGAGGA | -1.87 ± 0.27 | -2.76 ± 0.44
UUCGAGCAAUAUUACGAGUA | -1.57 ± 0.15 | -1.43 ± 0.18
UUCGAGCAAUAUUACGAUAA | -1.53 ± 0.097 | -0.787 ± 0.11

Sequence | self-splicing fitness (ln) (30 °C) | self-splicing fitness (ln) (37 °C)
UUCGAGCAAUAUUACGAUCG | -2.94 ± 0.32 | -1.53 ± 0.43
UUCGAGCAAUAUUACGCAGU | -2.87 ± 0.36 | -1.61 ± 0.33
UUCGAGCAAUAUUACGCCAG | -2.94 ± 0.24 | -0.74 ± 0.21
UUCGAGCAAUAUUACGCGAU | -2.39 ± 0.21 | -2.11 ± 0.27
UUCGAGCAAUAUUACGCGGC | – | -2.29 ± 0.49
UUCGAGCAAUAUUACGGUCC | -1.91 ± 0.39 | -1.56 ± 0.43
UUCGAGCAAUAUUACGUAUA | -2.7 ± 0.33 | -2.78 ± 0.41
UUCGAGCAAUAUUACGUGUU | -4.05 ± 0.25 | -1.72 ± 0.18
UUCGAGCAAUAUUACGUUAC | -3.5 ± 0.48 | –
UUCGAGCAAUAUUACGUUCU | -1.47 ± 0.15 | -0.345 ± 0.16
UUCGAGCAAUAUUACGUUUG | -2.94 ± 0.14 | -2.99 ± 0.2
UUCUAGCAAUAUUACGAGGA | -2.56 ± 0.25 | -1.4 ± 0.25
UUCUAGCAAUAUUACGAUCA | -1.69 ± 0.23 | -0.172 ± 0.18
UUCUAGCAAUAUUACGCCUU | -3.43 ± 0.21 | -2.57 ± 0.15
UUCUAGCAAUAUUACGCGCG | -2.24 ± 0.32 | -1.05 ± 0.18
UUCUAGCAAUAUUACGCUCA | -0.563 ± 0.15 | -0.208 ± 0.19
UUCUAGCAAUAUUACGCUGA | -1.04 ± 0.31 | -0.752 ± 0.25
UUCUAGCAAUAUUACGCUUC | -2.8 ± 0.32 | -1.96 ± 0.22
UUCUAGCAAUAUUACGGACC | -1.51 ± 0.3 | –
UUCUAGCAAUAUUACGGCCG | -1.96 ± 0.14 | -1.56 ± 0.16
UUCUAGCAAUAUUACGGCGU | -1.72 ± 0.13 | -1.2 ± 0.14
UUCUAGCAAUAUUACGGGGC | -3.22 ± 0.32 | -2.02 ± 0.26
